Measured values from patent publication US20140271653A1.
“And” between values parts separate entries of the source, which are not always exact repeats. Identical values can stand only once.

Tests used:
[1] = biological target: RSV-F of RSV subtype A lab strains; assay: cell-based or functional assay
[2] = biological target: RSV-F of RSV subtype B lab strains; assay: cell-based or functional assay

B1: H1H3592P3 (antibody, V domains shown)
VH: EVQLVESGGDLVQPGRSLRLSCVASGFTFDDYAMHWVRQAPGKGLEWVSGVSWSGSTVGYADSVKGRFTVSRDNAQKSLYLQMNSLRAEDTALYYCVKDAYKFNYYYYGLDVWGQGTTVTVSS
VL: EIVMTQSPATLSVSPGERATLSCRASQTILSNLAWYLQKPGQAPRLLIYGASTRATGLPARFSGSGSGTEFTLTISSLQSEDFAVYYCQQYNNWPLTFGGGTKVEIK
**Q.** Which neutralization potency on HEp-2 cells, fold against control I [1] does the source give for B1 here?
**A.** 15 fold and 17 fold

**Q.** And the neutralization potency on HEp-2 cells, fold against control I [2]?
**A.** 2 fold and 5 fold
